According to publication PMC4192059 (Molecular microbiology, 2014):

B1: PPE41 (M. tuberculosis), chain of the crystallized complex (natural protein)
chain: MHFEAYPPEVNSANIYAGPGPDSMLAAARAWRSLDVEMTAVQRSFNRTLLSLMDAWAGPVVMQLMEAAKPFVRWLTDLCVQLSEVERQIHEIVRAYEWAHHDMVPLAQIYNNRAERQILIDNNALGQFTAQIADLDQEYDDFWDEDGEVMRDYRLRVSDALSKLTPWKAPPPIAHSTVLVAPVSPSTASSRTDT
B2: His6-PE25–PPE41 heterodimer (M. tuberculosis), wild type (complex)
chain 1: MSFVITNPEALTVAATEVRRIRDRAIQSDAQVAPMTTAVRPPAADLVSEKAATFLVEYARKYRQTIAAAAVVLEEFAHALTTGADKYATAEADNIKTFS
chain 2: B1 chain

Tests used:
[1] = target: T1, EspG5 (M. tuberculosis), crystallization construct (M. tuberculosis H37Rv, UniProt O53943 1-300); assay: crystal structure
T1 sequence: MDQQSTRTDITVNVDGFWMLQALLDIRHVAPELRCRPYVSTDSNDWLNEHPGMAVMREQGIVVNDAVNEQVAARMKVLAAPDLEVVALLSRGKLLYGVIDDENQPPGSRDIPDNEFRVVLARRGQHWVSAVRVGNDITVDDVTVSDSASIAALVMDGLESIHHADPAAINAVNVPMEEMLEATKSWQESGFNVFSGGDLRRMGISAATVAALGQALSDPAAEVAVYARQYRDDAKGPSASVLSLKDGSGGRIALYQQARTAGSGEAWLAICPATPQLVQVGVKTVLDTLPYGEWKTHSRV

[2] = target: T2, EspG5 (M. tuberculosis), from His6-SUMO3-EspG5, tag cleaved (M. tuberculosis, UniProt O53943 1-300); assay: ITC
T2 sequence: T1 sequence

| Binder | binding result [1] | Kd [2] |
| --- | --- | --- |
| B1 | binds |  |
| B2 |  | 48.1 nM |
